Experimental findings from patent publication US20120322150A1 (CARNEGIE INSTITUTION OF WASHINGTON, published 2012) are described below.

Common to all, as to experiment: BiFC in tobacco leaf epidermal cells
Assay [1] addresses T1, BSL1 (BiFC construct tested with BSK1-cYFP) (Arabidopsis, UniProt Q8L7U5 1-881).
T1 sequence: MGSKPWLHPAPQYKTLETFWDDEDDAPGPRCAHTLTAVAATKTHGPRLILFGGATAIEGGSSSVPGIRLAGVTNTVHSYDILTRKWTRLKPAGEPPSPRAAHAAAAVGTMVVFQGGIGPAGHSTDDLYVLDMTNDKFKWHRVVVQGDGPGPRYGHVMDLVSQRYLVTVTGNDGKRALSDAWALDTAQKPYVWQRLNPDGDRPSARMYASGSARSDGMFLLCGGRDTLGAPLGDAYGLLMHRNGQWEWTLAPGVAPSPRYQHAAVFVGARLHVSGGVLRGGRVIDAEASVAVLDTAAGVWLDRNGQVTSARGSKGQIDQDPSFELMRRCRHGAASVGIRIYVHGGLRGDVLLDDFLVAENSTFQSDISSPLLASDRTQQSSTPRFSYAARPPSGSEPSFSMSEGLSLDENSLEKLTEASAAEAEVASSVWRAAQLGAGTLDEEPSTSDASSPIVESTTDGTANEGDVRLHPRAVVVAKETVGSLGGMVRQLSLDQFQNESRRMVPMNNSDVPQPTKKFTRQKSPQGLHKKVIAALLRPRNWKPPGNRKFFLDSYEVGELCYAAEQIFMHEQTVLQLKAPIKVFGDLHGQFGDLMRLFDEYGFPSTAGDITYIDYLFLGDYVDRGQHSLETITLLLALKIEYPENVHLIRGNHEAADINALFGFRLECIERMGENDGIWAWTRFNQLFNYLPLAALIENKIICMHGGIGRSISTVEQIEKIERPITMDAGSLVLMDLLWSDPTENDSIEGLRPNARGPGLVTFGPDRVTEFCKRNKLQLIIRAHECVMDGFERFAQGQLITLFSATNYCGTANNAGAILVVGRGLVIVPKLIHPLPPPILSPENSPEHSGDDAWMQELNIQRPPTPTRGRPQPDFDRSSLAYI
The source says:
(§1) The blot was probed sequentially with MBP-BSU1 and anti-MBP antibody (upper) and then stained with Ponceau S (lower). […] Tobacco leaf epidermal cells were transformed with indicated constructs. At5g49760 is a receptor kinase unrelated to BR signaling used here as a negative control. Bright spots in nYFP+BSK 1-cYFP and At5g49760-nYFP+BSK1-cYFP are chloroplast auto-fluorescence. […] Total protein extracts obtained from Arabidopsis plants (F1) expressing BSU1 -YFP or co-expressing BSU1-YFP and BSK1-myc were immunoprecipitated with anti-myc, and the immunoblot was probed with anti-GFP and anti-myc antibody. […] GST-BSK1 or GST-BSK1 S230A was incubated with GST-BRI1-K or GST for 2 hrs. […] In the presence of BR (+BR), BR binding to the extracellular domain of BRI1 induces dissociation of BKI1 and association and inter-activation between BRI1 and BAKI. Activated BRI1 then phosphorylates BSK1, which in turn dissociates from the receptor complex and interacts with and presumably activate BSU1. BSU1 inactivates BIN2 by dephosphorylating its pTyr200, allowing accumulation of unphosphorylated BZR1/2, likely with help of a phosphatase that is yet to be identified. Unphosphorylated BZR1/2 accumulate in the nucleus and alter the expression of BR-target genes, leading to cellular and developmental responses. While individual representative protein is shown for each function, in Arabidopsis most of these components have about 2 to 5 homologous proteins (paralogs) that can contribute to the same or similar signaling function.
(§2) Transformation by Agrobacterium infiltration, observations of subcellular localization and BiFC signal in tobacco or Arabidopsis were performed as described previously 5.

The next assay concerns the target T2, At5g49760-nYFP (UniProt Q8GZ99 24-953).
T2 construct: BiFC negative control; not shown: N-terminal half of YFP (nYFP)
T2 sequence (looked up): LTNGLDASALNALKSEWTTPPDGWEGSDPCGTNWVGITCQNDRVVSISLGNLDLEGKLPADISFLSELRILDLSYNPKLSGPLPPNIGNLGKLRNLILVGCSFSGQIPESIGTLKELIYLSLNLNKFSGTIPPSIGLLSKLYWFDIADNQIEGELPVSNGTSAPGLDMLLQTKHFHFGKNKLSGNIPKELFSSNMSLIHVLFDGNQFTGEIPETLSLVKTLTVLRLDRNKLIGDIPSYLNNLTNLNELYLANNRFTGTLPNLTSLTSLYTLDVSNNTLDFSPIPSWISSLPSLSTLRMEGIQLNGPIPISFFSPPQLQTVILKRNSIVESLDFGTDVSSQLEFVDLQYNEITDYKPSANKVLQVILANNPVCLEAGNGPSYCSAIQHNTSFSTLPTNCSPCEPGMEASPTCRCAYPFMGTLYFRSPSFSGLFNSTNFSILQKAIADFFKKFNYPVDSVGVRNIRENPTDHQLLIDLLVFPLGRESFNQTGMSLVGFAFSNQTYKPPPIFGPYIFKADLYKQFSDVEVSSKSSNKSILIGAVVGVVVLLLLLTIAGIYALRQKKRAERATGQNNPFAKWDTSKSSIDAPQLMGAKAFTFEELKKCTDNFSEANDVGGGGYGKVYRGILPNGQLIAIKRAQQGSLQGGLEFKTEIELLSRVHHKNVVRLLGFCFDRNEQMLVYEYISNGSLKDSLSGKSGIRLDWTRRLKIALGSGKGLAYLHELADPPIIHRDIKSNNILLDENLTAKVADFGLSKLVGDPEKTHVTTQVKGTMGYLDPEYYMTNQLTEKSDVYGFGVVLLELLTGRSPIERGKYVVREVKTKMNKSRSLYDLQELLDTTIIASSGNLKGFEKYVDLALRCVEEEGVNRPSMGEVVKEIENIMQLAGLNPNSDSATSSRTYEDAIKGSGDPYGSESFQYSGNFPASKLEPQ
Text: as §1, §2

Assay [2] addresses BSU1 (BiFC construct tested with BSK1-cYFP) (Arabidopsis, UniProt Q9LR78 1-793).
Text: as §1, §2

Sequence of BSU1 (BiFC construct tested with BSK1-cYFP) (Q9LR78 whole entry): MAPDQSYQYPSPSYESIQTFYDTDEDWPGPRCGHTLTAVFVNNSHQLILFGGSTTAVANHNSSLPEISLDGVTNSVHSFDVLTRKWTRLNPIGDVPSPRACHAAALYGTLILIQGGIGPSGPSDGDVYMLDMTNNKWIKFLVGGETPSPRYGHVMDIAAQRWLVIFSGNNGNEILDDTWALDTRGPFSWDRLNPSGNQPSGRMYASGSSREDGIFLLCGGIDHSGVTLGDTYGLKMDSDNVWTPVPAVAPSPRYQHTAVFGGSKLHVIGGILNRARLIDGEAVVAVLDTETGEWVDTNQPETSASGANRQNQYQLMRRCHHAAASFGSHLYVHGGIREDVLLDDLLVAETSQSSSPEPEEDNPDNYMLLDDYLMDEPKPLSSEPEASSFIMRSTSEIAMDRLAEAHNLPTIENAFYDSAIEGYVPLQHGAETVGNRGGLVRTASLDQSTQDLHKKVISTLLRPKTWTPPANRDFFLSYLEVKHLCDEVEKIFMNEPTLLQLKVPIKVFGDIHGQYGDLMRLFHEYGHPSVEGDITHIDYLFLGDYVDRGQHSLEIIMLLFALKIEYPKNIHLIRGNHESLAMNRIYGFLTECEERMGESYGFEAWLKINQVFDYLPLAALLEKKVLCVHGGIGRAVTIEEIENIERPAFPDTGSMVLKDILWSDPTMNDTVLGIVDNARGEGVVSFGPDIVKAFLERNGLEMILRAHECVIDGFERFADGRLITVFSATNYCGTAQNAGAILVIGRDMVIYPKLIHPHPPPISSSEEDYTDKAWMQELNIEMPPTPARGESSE

B1: BSK1-cYFP (enzyme, Arabidopsis, UniProt Q944A7 2-512, looked up)
chain: GCCQSLFSGDNPLGKDGVQPQPLSQNNHGGATTADNGGSGGASGVGGGGGGGGIPSFSEFSFADLKAATNNFSSDNIVSESGEKAPNLVYKGRLQNRRWIAVKKFTKMAWPEPKQFAEEAWGVGKLRHNRLANLIGYCCDGDERLLVAEFMPNDTLAKHLFHWENQTIEWAMRLRVGYYIAEALDYCSTEGRPLYHDLNAYRVLFDEDGDPRLSCFGLMKNSRDGKSYSTNLAYTPPEYLRNGRVTPESVTYSFGTVLLDLLSGKHIPPSHALDMIRGKNIILLMDSHLEGKFSTEEATVVVELASQCLQYEPRERPNTKDLVATLAPLQTKSDVPSYVMLGIKKQEEAPSTPQRPLSPLGEACSRMDLTAIHQILVMTHYRDDEGTNELSFQEWTQQMKDMLDARKRGDQSFREKDFKTAIDCYSQFIDVGTMVSPTVFGRRSLCYLLCDQPDAALRDAMQAQCVYPDWPTAFYMQSVALAKLNMNTDAADMLNEAAQLEEKRQRGGRGS
notes: BiFC construct in tobacco leaf epidermal cells; not shown: C-terminal half of YFP (cYFP)
In the case of B1, the binding result was “binds” in assay [1], “no binding” with At5g49760-nYFP and “binds” in assay [2].
